Patent US20230218637A1, “COMPOSITIONS AND METHODS FOR DIAGNOSING, PREVENTING, AND TREATING AMYOTROPHIC LATERAL SCLEROSIS IN PATIENTS WITH HYPOFUNCTIONAL ANTI-TRYPSIN ACTIVITY” (Motor Life Sciences, LLC, priority 2020, published 2023)

Assays:
[1] = tested on: alpha-1 anti-trypsin; details: cited from earlier work; for augmenting blood and lung alpha-1 anti-trypsin levels compared with Prolastin / safety compared with Prolastin: basis of approval
[2] = target: T1, alpha1-protease inhibitor (Homo sapiens, UniProt P01009); details: cited from earlier work
T1 construct: a human protein has been isolated from pooled human serum samples and lyophilized; tissue Baxter / Takeda (Aralast NP); host or cells: pooled human serum / plasma
T1 sequence (P01009 25-418): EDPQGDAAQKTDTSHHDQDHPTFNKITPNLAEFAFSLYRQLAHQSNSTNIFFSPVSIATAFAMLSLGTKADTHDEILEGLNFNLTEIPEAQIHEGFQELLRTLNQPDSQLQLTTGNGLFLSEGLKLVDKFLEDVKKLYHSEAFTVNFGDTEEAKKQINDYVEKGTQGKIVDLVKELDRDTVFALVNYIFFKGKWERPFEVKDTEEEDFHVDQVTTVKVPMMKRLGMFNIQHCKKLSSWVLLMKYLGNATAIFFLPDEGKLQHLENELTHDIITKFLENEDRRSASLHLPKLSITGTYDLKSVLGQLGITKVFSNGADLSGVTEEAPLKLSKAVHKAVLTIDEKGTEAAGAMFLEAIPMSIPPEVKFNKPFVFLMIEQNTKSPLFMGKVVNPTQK

[3] = tested on: mutant SOD mice (SOD1G93A); assay: Ursolic acid treatment of ALS mouse model (grip test, rotarod); type: in vivo; details: ursolic acid 200 mg/kg daily over eight weeks
Experimental: In ALS mouse models, like mutant SOD mice (SOD1G93A)), ALS is diagnosed based on hanging wire grip test (where the latency of falling is measured in seconds), grip strength analysis, rotarod time trial test, where a decrease in time balanced on the rod correlates to disease positive mice. Weight is measured to determine hypotrophy of muscle mass over time. Low levels of serum serpinA1 proteins levels, serum protease inhibitor function, serum trypsin protein levels, and serum functional trypsin level correlates with ALS. Once the mice have been diagnosed with ALS, the mice are given daily treatments of ursolic acid (200 mg/kg) over the course of eight weeks. Levels of serum serpinA1 proteins, serum protease inhibitor function, serum trypsin protein, and serum functional trypsin are assessed over time monitoring for an increases. Grip test and rotarod times are assessed over time as a correlation for delay in disease progression.

## Glassia: FDA approved alpha-1 antitrypsin deficiency drug from Kamada Ltd.
[1]
  augmenting blood and lung alpha-1 anti-trypsin levels compared with Prolastin: comparable to Prolastin
  safety compared with Prolastin: comparable to Prolastin

## Aralast NP: sterile, lyophilized preparation of human alpha-1 antitrypsin protein derived from large pools of human plasma
[1]
  augmenting blood and lung alpha-1 anti-trypsin levels compared with Prolastin: comparable to Prolastin
  safety compared with Prolastin: comparable to Prolastin
[2]
  specific activity: 0.55 mg active alpha1-protease inhibitor/mg of total protein

## Zemaira: FDA approved alpha-1 antitrypsin deficiency drug from CSL Behring
[1]
  augmenting blood and lung alpha-1 anti-trypsin levels compared with Prolastin: comparable to Prolastin
  safety compared with Prolastin: comparable to Prolastin

## Prolastin: alpha-1 antitrypsin augmentation therapy product from Grifols, marketed since 1988
[1]; marketed since 1988
  safety record: excellent safety record

## C[C@H]1[C@H](C)CC[C@]2(C(=O)O)CC[C@]3(C)C(=CC[C@@H]4[C@@]5(C)CC[C@H](O)C(C)(C)[C@@H]5CC[C@]43C)[C@H]12 [ursolic acid]
[3]
  performance (grip test, rotarod) versus non-treatment group: outperform the non-treatment group
